Target: CD3 on human CD3+ Jurkat T cells (human) (UniProt P07766)
Experiment: cell-based or functional assay

Sequence of CD3 on human CD3+ Jurkat T cells (human) (P07766 23-207): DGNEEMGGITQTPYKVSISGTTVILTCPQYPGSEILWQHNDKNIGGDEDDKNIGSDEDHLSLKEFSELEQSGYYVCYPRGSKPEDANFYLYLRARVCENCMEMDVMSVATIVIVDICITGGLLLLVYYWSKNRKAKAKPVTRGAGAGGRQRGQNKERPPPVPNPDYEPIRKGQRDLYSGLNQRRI

EC50 (nM) of internalization of the pHAb conjugate, Jurkat cells (CD19-, CD3+): 13.2 nM
internalization of the pHAb conjugate by Jurkat cells: 2 nM
Substance: v2171, bivalent anti-CD3 pHAb conjugated mAb (UCHT1) (antibody)

— patent US20180193477A1
